Consider two substances from patent CN110954697A.

Test [1] has as its target 抗PD-1单链抗体与IgG4Fc片段融合蛋白 (anti-PD-1 scFv-IgG4 Fc fusion secreted by Meso3CAR-T-antiPD1 cells). The test is described as follows: flow cytometry on Meso3CAR-T-antiPD1 cells; 2 μL PE-labelled anti-IgG4 Fc antibody, read directly (these cells also carry Meso3CAR with an IgG4 CH2CH3 hinge). (In general: Flow cytometry measures light scatter and fluorescence of single cells or particles in a stream.)

Test [2] has the same target. Kind of test: flow cytometry on Meso3CAR-T-antiPD1 cells; 2 μL of 1 mg/mL biotin-labelled reagent, streptavidin-PE.

Chain of 抗PD-1单链抗体与IgG4Fc片段融合蛋白 (anti-PD-1 scFv-IgG4 Fc fusion secreted by Meso3CAR-T-antiPD1 cells) (chain, as listed by the source): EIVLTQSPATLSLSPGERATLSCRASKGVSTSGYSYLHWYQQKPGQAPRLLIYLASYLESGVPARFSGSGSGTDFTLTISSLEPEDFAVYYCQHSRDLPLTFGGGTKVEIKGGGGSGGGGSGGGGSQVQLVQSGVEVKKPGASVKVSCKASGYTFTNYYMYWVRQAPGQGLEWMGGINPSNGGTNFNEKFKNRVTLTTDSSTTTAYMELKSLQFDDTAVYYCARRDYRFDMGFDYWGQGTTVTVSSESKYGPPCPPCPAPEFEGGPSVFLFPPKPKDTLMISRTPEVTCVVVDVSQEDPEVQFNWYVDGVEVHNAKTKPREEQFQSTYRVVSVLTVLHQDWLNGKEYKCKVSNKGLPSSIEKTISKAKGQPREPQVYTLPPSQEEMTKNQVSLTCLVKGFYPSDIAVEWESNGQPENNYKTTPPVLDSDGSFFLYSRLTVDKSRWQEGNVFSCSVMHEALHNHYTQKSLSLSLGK

On to “PE标记的抗IgG4Fc抗体 (PE-labelled anti-IgG4 Fc antibody), Abcam, 货号 ab99825”, for which the 阳性率 (percent positive cells) in test [1] was 39.9%.
Regarding “抗PD-1抗体的抗体 (antibody against the anti-PD-1 antibody), 金斯瑞 GenScript, 货号 A01853-40, biotin-labelled”, in test [2], the 阳性细胞的比例 (percent positive cells) was 31.6%.
